US20240002497A1 (Merck Sharp & Dohme, published 2024)

Assays:
rhNav1.7α = rhNav1.7α (rhesus monkey, UniProt Q15858 1-1988 (human entry)); assay: cell-based or functional assay
huNav1.7α [1] = target: T1, huNav1.7α (human, UniProt Q15858 1-1988); assay: cell-based or functional assay
rhNav1.7α+β1-β2-β3 = target: T2, rhNav1.7α+β1-β2-β3 (rhesus monkey α subunit with human β …); assay: binding FACS, CHO FlpIn cells
T2 construct: P2A cleaves it into α, β1, β2, β3; also called rhNav1.7-beta1-beta2-beta3

[2] = target: T3, huNav1.7α (human Nav1.7 alpha subunit, expressed without β subunits) (human, UniProt Q15858 1-1988); assay: binding FACS, HEKa cells
T3 construct: also called HEK293 human Nav1.7α; HEKa Nav1.7α

[3] = target: T4, huNav1.7α + β1 (human Nav1.7α co-expressed with Navβ1) (human, UniProt Q15858 1-1988; Q07699 19-218); assay: binding FACS, HEKa/β1 cells
T4 construct: also called HEK293 human Nav1.7α + β1; HEKa/β1 Nav1.7α

huNav1.7α+β1-β2-β3 = target: T5, huNav1.7α+β1-β2-β3 (human, UniProt Q15858 1-1988; Q07699 19-218; O60939 30-215; Q9NY72 23-215); assay: binding FACS, CHO FlpIn cells
T5 construct: 5N11S variant; also called huNav1.7-beta1-beta2-beta3; huNav1.7α+Navβ1-Navβ2-Navβ3
In short: (§1)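 Cells in FACS buffer (PBS, 10% FBS, NaN₃) were incubated with purified FLAG3-tagged ISVD for 30 minutes at 4° C. Bound ISVD was detected by flow cytometry with murine anti-Flag, and dead cells were excluded with 1 μg/mL propidium iodide.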

huNav1.7α+β1 = target: T6, huNav1.7α+β1 (human, UniProt Q15858 1-1988; Q07699 19-218); assay: binding FACS, HEKa/β1 cells
T6 construct: also called huNav1.7-beta1; HEKa/β1
In short: as §1

huNav1.7α [4] = target: T1, huNav1.7α; assay: binding FACS, HEKa cells
Experimental: Binding of the ISVDs to cell-expressed Nav1.7α was detected via murine anti-Flag (Sigma, catalog #F1804). Briefly, cells were resuspended in FACS buffer (PBS, 10% FBS, NaN₃) and transferred to a 96-well V-bottom plate at 1×10^5 cells/well. Purified FLAG3-tagged ISVD was diluted in FACS buffer and added to the cells for 30 minutes at 4° C. […] Prior to the read-out, the samples were resuspended in 1 μg/mL propidium iodide (Sigma, catalog #P4170) to exclude dead cells. Between each step, the cells were centrifuged for 5 minutes at 200 grams and washed with 100 μL/well FACS buffer.

Binder | EC50 (huNav1.7α+β1-β2-β3) [nM] | EC50 (huNav1.7α+β1) [nM] | EC50 (huNav1.7α [4]) [nM] | also measured
F010300316 (VHH, vs F0103275B05: T57W) VHH: EVQLVESGGGLVQPGGSLRLSCAASGSIFNINSMAWYRRAPGKQRELVASSTNGGSWNYADSVKGRFTISRDNAKRVYLQMNSLTPEDTAVYYCNALLQPSIYDISRTYWGQGTLVTVSS | – | – | – | 2-pulse IC50 [M], P1 (rhNav1.7α): 5e-06 M; 2-pulse IC50 [M], P2 (rhNav1.7α): 4e-06 M; 2-pulse IC50 [M], P1 (huNav1.7α [1]): 2e-06 M; 2-pulse IC50 [M], P2 (huNav1.7α [1]): 1e-06 M; EC50 (rhNav1.7α+β1-β2-β3): 170 nM
F010300468 (VHH, vs F0103275B05: N93R; also called F0103275B05(N93R)+FLAG3-HIS6; F103275B05(N93R)) VHH: EVQLVESGGGLVQPGGSLRLSCAASGSIFNINSMAWYRRAPGKQRELVASSTNGGSTNYADSVKGRFTISRDNAKRVYLQMNSLTPEDTAVYYCRALLQPSIYDISRTYWGQGTLVTVSS | – | – | – | 2-pulse IC50 [M], P1 (rhNav1.7α): 6e-06 M; 2-pulse IC50 [M], P2 (rhNav1.7α): 3e-06 M; 2-pulse IC50 [M], P1 (huNav1.7α [1]): 5e-06 M; 2-pulse IC50 [M], P2 (huNav1.7α [1]): 4e-06 M; EC50 (rhNav1.7α+β1-β2-β3): 40 nM
F010301556 (VHH, also called F0103387G05(D23A, D53G, D54G, D58G)) VHH: EVQLVESGGGLVQAGGSLRLSCAASGRILRIGYMRWHRQGAGKQREFVARITGGSATGYADSVKGRFTISRDNAKNTVYLQMNNLNPEDTAVYYCEALVTASVRGGSIHSGTYWGRGTLVTVSS [F010301556, listing 1 of 2 here] | – | – | – | EC50 [2]: 1.8 nM; EC50 [3]: 1.4 nM
F010301563 (VHH, also called F0103387G05(D23A, D58G)) VHH: EVQLVESGGGLVQAGGSLRLSCAASGRILRIGYMRWHRQGAGKQREFVARITDDSATGYADSVKGRFTISRDNAKNTVYLQMNNLNPEDTAVYYCEALVTASVRGGSIHSGTYWGRGTLVTVSS | – | – | – | EC50 [2]: 1.5 nM; EC50 [3]: 1 nM
F010301849 (VHH, also called F0103387G05(L11V, A14P, D23A, G40A, A41P, D58G, N82bS, N83R, V89L, R105Q)) VHH: EVQLVESGGGVVQPGGSLRLSCAASGRILRIGYMRWHRQAPGKQREFVARITDDSATGYADSVKGRFTISRDNAKNTVYLQMNSLRPEDTALYYCEALVTASVRGGSIHSGTYWGQGTLVTVSS | – | – | – | Bmax [2]: 100%; EC50 [2]: 3 nM; EC50 [3]: 1.8 nM
F010301344 (VHH, vs 387G05: D54G) VHH: EVQLVESGGGLVQAGGSLRLSCDASGRILRIGYMRWHRQGAGKQREFVARITDGSATDYADSVKGRFTISRDNAKNTVYLQMNNLNPEDTAVYYCEALVTASVRGGSIHSGTYWGRGTLVTVSS | 4.2 | 2.1 | 1.3 | –
F010301350 (VHH, vs 387G05: D58V) VHH: EVQLVESGGGLVQAGGSLRLSCDASGRILRIGYMRWHRQGAGKQREFVARITDDSATVYADSVKGRFTISRDNAKNTVYLQMNNLNPEDTAVYYCEALVTASVRGGSIHSGTYWGRGTLVTVSS | 3.5 | 1.7 | 1.6 | –
F010301367 (VHH, vs 387G05: D53G) VHH: EVQLVESGGGLVQAGGSLRLSCDASGRILRIGYMRWHRQGAGKQREFVARITGDSATDYADSVKGRFTISRDNAKNTVYLQMNNLNPEDTAVYYCEALVTASVRGGSIHSGTYWGRGTLVTVSS | 4.2 | 1.9 | 2.2 | –
F010301372 (VHH, vs 387G05: S100dG) VHH: EVQLVESGGGLVQAGGSLRLSCDASGRILRIGYMRWHRQGAGKQREFVARITDDSATDYADSVKGRFTISRDNAKNTVYLQMNNLNPEDTAVYYCEALVTASVRGGGIHSGTYWGRGTLVTVSS | 4.5 | 2.3 | 2.5 | –
F010301445 (VHH, vs 387G05: S100dY) VHH: EVQLVESGGGLVQAGGSLRLSCDASGRILRIGYMRWHRQGAGKQREFVARITDDSATDYADSVKGRFTISRDNAKNTVYLQMNNLNPEDTAVYYCEALVTASVRGGYIHSGTYWGRGTLVTVSS | 4.6 | 2 | 2.3 | –
F010301557 (VHH, vs 387G05: D23A, D53G, D54G) VHH: EVQLVESGGGLVQAGGSLRLSCAASGRILRIGYMRWHRQGAGKQREFVARITGGSATDYADSVKGRFTISRDNAKNTVYLQMNNLNPEDTAVYYCEALVTASVRGGSIHSGTYWGRGTLVTVSS | 3.8 | 2.1 | 2 | –
F010301564 (VHH, vs 387G05: D53G, D54G) VHH: EVQLVESGGGLVQAGGSLRLSCDASGRILRIGYMRWHRQGAGKQREFVARITGGSATDYADSVKGRFTISRDNAKNTVYLQMNNLNPEDTAVYYCEALVTASVRGGSIHSGTYWGRGTLVTVSS | 3.5 | 2.4 | 1.9 | –

Continued by falling EC50 (huNav1.7α+β1-β2-β3), values first:

EC50 (huNav1.7α+β1-β2-β3) [nM] | EC50 (huNav1.7α+β1) [nM] | EC50 (huNav1.7α [4]) [nM] | Binder | also measured
3.5 | 1.8 | 1.9 | F010301314 (VHH, vs 387G05: D23A) VHH: EVQLVESGGGLVQAGGSLRLSCAASGRILRIGYMRWHRQGAGKQREFVARITDDSATDYADSVKGRFTISRDNAKNTVYLQMNNLNPEDTAVYYCEALVTASVRGGSIHSGTYWGRGTLVTVSS | –
3.4 | 1.6 | 1.5 | F010301346 (VHH, vs 387G05: D58G) VHH: EVQLVESGGGLVQAGGSLRLSCDASGRILRIGYMRWHRQGAGKQREFVARITDDSATGYADSVKGRFTISRDNAKNTVYLQMNNLNPEDTAVYYCEALVTASVRGGSIHSGTYWGRGTLVTVSS | –
2.5 | 1.2 | 2.2 | F010301561 (VHH, vs 387G05: D23A, D53G) VHH: EVQLVESGGGLVQAGGSLRLSCAASGRILRIGYMRWHRQGAGKQREFVARITGDSATDYADSVKGRFTISRDNAKNTVYLQMNNLNPEDTAVYYCEALVTASVRGGSIHSGTYWGRGTLVTVSS | –
2.5 | 1.9 | 1.2 | F010301562 (VHH, vs 387G05: D23A, D54G) VHH: EVQLVESGGGLVQAGGSLRLSCAASGRILRIGYMRWHRQGAGKQREFVARITDGSATDYADSVKGRFTISRDNAKNTVYLQMNNLNPEDTAVYYCEALVTASVRGGSIHSGTYWGRGTLVTVSS | –
2.3 | 1.4 | 1.8 | F010301556 (VHH, also called F0103387G05(D23A, D53G, D54G, D58G)) VHH: EVQLVESGGGLVQAGGSLRLSCAASGRILRIGYMRWHRQGAGKQREFVARITGGSATGYADSVKGRFTISRDNAKNTVYLQMNNLNPEDTAVYYCEALVTASVRGGSIHSGTYWGRGTLVTVSS [F010301556, listing 2 of 2 here] | –
2.2 | 1 | 1.2 | F010301566 (VHH, vs 387G05: D54G, D58G) VHH: EVQLVESGGGLVQAGGSLRLSCDASGRILRIGYMRWHRQGAGKQREFVARITDGSATGYADSVKGRFTISRDNAKNTVYLQMNNLNPEDTAVYYCEALVTASVRGGSIHSGTYWGRGTLVTVSS | –
2.1 | 1.1 | 1.2 | F010301560 (VHH, vs 387G05: D53G, D54G, D58G) VHH: EVQLVESGGGLVQAGGSLRLSCDASGRILRIGYMRWHRQGAGKQREFVARITGGSATGYADSVKGRFTISRDNAKNTVYLQMNNLNPEDTAVYYCEALVTASVRGGSIHSGTYWGRGTLVTVSS | –
2.1 | 1 | 1.4 | F010301565 (VHH, vs 387G05: D53G, D58G) VHH: EVQLVESGGGLVQAGGSLRLSCDASGRILRIGYMRWHRQGAGKQREFVARITGDSATGYADSVKGRFTISRDNAKNTVYLQMNNLNPEDTAVYYCEALVTASVRGGSIHSGTYWGRGTLVTVSS | –
1.9 | 1 | 1.5 | F010301563 (VHH, also called F0103387G05(D23A, D58G); F0103301563) VHH: EVQLVESGGGLVQAGGSLRLSCAASGRILRIGYMRWHRQGAGKQREFVARITDDSATGYADSVKGRFTISRDNAKNTVYLQMNNLNPEDTAVYYCEALVTASVRGGSIHSGTYWGRGTLVTVSS | –
1.8 | 0.93 | 1.5 | F010301558 (VHH, vs 387G05: D23A, D53G, D58G) VHH: EVQLVESGGGLVQAGGSLRLSCAASGRILRIGYMRWHRQGAGKQREFVARITGDSATGYADSVKGRFTISRDNAKNTVYLQMNNLNPEDTAVYYCEALVTASVRGGSIHSGTYWGRGTLVTVSS | –
1.8 | 0.92 | 0.87 | F010301559 (VHH, vs 387G05: D23A, D54G, D58G) VHH: EVQLVESGGGLVQAGGSLRLSCAASGRILRIGYMRWHRQGAGKQREFVARITDGSATGYADSVKGRFTISRDNAKNTVYLQMNNLNPEDTAVYYCEALVTASVRGGSIHSGTYWGRGTLVTVSS | –
